# According to PMC3373503, “Ca^2+ Regulates the Drosophila Stoned-A and Stoned-B Proteins Interaction with the C2B Domain of Synaptotagmin-1” (PLoS ONE, 2012):
# Assays:
# Assay in all cases: pull-down; 1.5 µM GST protein as bait on glutathione resin, 0.25 µM MBP protein as prey; 2 h at 4°C; 10 mM HEPES pH 7.4, 1 mM MgCl2, 1 mg/ml BSA, 1 mM CaCl2 (Ca2+ binding buffer); eluted with glutathione, anti-MBP Western blot, densitometry
# [1] = biological target: GST-ΔW, C2B domain of Synaptotagmin-1 truncated immediately before the WHTL motif (Drosophila) (UniProt P21521)
# [2] = biological target: GST-C2B, C2B domain of Synaptotagmin-1 (wild type) (Drosophila) (UniProt P21521)
# [3] = biological target: T1, GST-C2B, C2B domain of Synaptotagmin-1 (wild type) (Drosophila, UniProt P21521 323-474); settings: both partners purified
# T1 construct: Synaptotagmin-1 (SYT-1), Drosophila, C2B domain, printed as 'bases 323–474' (read as residues 323-474), from the Drosophila syt cDNA clone, in pGEX-4T-1; also called GST SYT-1 C2B domain; C2B SYT-1; source: E. coli, purified (glutathione resin, washed free of nucleic acids)
fold binding against binding to GST-C2B [1],fold binding against binding to GST-C2A [2],fold binding in Ca2+ buffer against EGTA buffer [2],binding result [3],Molecule
4 fold,,,,"MBP-C2B, C2B domain of Synaptotagmin-1 (wild type) (from UniProt P21521 323-474) (domain or fragment)"
> 3 fold,3 fold,2.5 fold,,"MBP-STNA (CCD), coiled-coil domain of Stoned-A (from UniProt Q24211 1-850) (domain or fragment)"
> 5 fold,4 fold,4 fold,,"MBP-STNB (MHD), µ-homology domain of Stoned-B (from UniProt Q24212 1-1262) (domain or fragment)"
,,,binds,"MBP-C2B, C2B domain of Synaptotagmin-1 (wild type) (domain or fragment, Drosophila, UniProt P21521 323-474, looked up, Synaptotagmin-1 (SYT-1), Drosophila, C2B domain; 'the DNA encoding the C2B domain was also inserted into pMAL-c2X'; also called full length MBP-C2B; wild-type MBP-C2B; source: E. coli, purified (amylose resin, washed free of nucleic acids)) QEKLGDICFSLRYVPTAGKLTVVILEAKNLKKMDVGGLSDPYVKIAIMQNGKRLKKKKTSIKKCTLNPYYNESFSFEVPFEQIQKICLVVTVVDYDRIGTSEPIGRCILGCMGTGTELRHWSDMLASPRRPIAQWHTLKDPEETDEILKNMK"
